The values that follow come from a protein production outcome set (Wang et al. 2014).
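Note: failed if final PepcDB status was selected cloned or expressed and not failed if soluble or beyond.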

A short description of this series: label from the status in PepcDB records.
“MPHRKNTFSSWRSRLAQKAVHAGWAWVQRTGSVTAAHPGRFRFGALGTGTRLAFPLGTVFGEPWIQVGAHCIIGEQVTLTAGLMPDLDLGPEPILRIGDGVVLGRGSHVIADTTVTIGSDCYFGPYVYVTSTNHSYDDPHQPIGKQWPRMDPVEIGPGCWIGTGAVILPGARIGRNVVVAAGAVVRGAVPDHAVVAGAPARVVRRWTPAEGWQPPLRTPAPVPIPDGITPGQLRELSKLDDEAVARLAELDDPERAAGRLAEPAAEG”: the protein production entry was “failed”.

Turning to “TVLYVHGGAWFQDPLENHFEYLDLLVDALDARVIMPVYPKIPHRDYRTTFELLTKIYKRLLTKIDEPENLVIIGDSAGGQIALAFAQMLKKEQLSQPGHIVLISPVLDATFKNPEARKYEKEDPMLGIDGSKYLVELWAGDAPLDDYKMSPMNGDLEGLGHITLTVGTKETLYPDAVKFSHMLNDKGIKHQFIPGYNLFHIYPLFPIPERQRFLEQLKKII”, the protein production entry is given as “failed”. Consider “MWIVLWPGLTGLPDSLVLLARVGGCSVLYDTGSGEPGSIVALAANLASAGVKPWSINVAIVSHAHVPSSGGARWLHDNHRVTIAARRPDSRWIEEGDPVKTAAVDYGLPTKPVPIGLELEREGRMPGECEGVEVLFTPGHTPGSVSVSLDTGDATVLAVSDALGRLKRDWGSSEREWMESLDKISSRDPDYLCTSVTCMDRRAAKAFLDEIREKGPVWDVENSSGDGPG”, for which the protein production entry is “failed”. In the case of “MSIPFSNTHYRIPQGFGNLLEGLTREILREQPDNIPAFAAAYFESLLEKREKTNFDPAEWGSKVEDRFYNNHAFEEQEPPEKSDPKQEESQISGKEEETSVTILDSSEEDKEKEEVAAVKIQAAFRGHIAREEAKKMKTNSLQNEEKEENK”, the protein production entry is on record as “failed”. For “MLGELDLATVILMQKCSYIVGLLSFIYLKMSNRGLPGPVHLAAGFAAMTVGSTLAGYGEWKILSPALWELGSVLFGIAGYALIWLGLKTLSDGRFVNRKTILFTCLVALLAIGVALQVAGNNTFRAALFNGCAALAYLGGAGVLFARWRKEPLLSRLALGAITGVSGLISLAVMKSVLFPGYASINLVTAFFFIIMLNFAISLFVMMLVAERSERKLLVLANTDPLTGVKNRRFFFQTMPAAPDPADAAMLLDIDHFKSINDRFGHAVGDSVLQEVARRISGSIRGGDVLARYGGEEFIIFLPGAGVDKACMIGERIRDAVAINEVDCGGLRVGVTISIGVATTGDMRCDLQMLAEKADRALYRAKTEGRNCVREALAA”, the protein production result is “failed”. The same measure for “MRAPGALLARMSRLLLLLLLKVSASSALGVAPASRNETCLGESCAPTVIQRRGRDAWGPGNSARDVLRARAPREEQGAAFLAGPSWDLPAAPGRDPAAGRGAEASAAGPPGPPTRPPGPWRWKGARGQEPSETLGRGNPTALQLFLQISEEEEKGPRGAGISGRSQEQSVKTVPGASDLFYWPRRAGKLQGSHHKPLSKTANGLAGHEGWTIALPGRALAQNGSLGEGIHEPGGPRRGNSTNRRVRLKNPFYPLTQESYGAYAVMCLSVVIFGTGIIGNLAVMCIVCHNYYMRSISNSLLANLAFWDFLIIFFCLPLVIFHELTKKWLLEDFSCKIVPYIEVASLGVTTFTLCALCIDRFRAATNVQMYYEMIENCSSTTAKLAVIWVGALLLALPEVVLRQLSKEDLGFSGRAPAERCIIKISPDLPDTIYVLALTYDSARLWWYFGCYFCLPTLFTITCSLVTARKIRKAEKACTRGNKRQIQLESQMNCTVVALTILYGFCIIPENICNIVTAYMATGVSQQTMDLLNIISQFLLFFKSCVTPVLLFCLCKPFSRAFMECCCCCCEECIQKSSTVTSDDNDNEYTTELELSPFSTIRREMSTFASVGTHC”: “failed”; for “MGARAPFAVAGRGEIGRGQQGQAQPGGMMRALALALLLWPACAAAEFFTLKGHGGPVMGIAVGPEGQIATASFDNSVGLWTGRAPHWFEGHEAAVNTVAFQGGVLYSAGDDFTLRRWPEGTILGRHKGKITGLALSETLAATASWDGTIGLWPLDSRAPRSLDAASGVNAVAFSPDGTLLYSAGMDGVLRLWDVASGSELRQITRHGFGINEIVLNDADGWLAYGAVDGVTRILDLATGAERDFTLDRRPVLALALSPDRSQLAVGDGEGYIMVIDTASWRIARDFRATLRGPVWALAFSPDGANIHAGGIDDTMYSWPVASLSEHGKMASGERSFLKDPDQMDNGERQFARKCSICHALTPEGGRRAGPTLYRVFGRRAGTLPGYLYSDTLAGSDIVWTEESINSLFDLGPDHYIPGSKMPMQRITGAQDRADLIAYLRRATLAKESP”: “failed”. Regarding “MADLTDALIDAALERGRSAHANEPRAAKARYDRSSARVIVDLENGCTFAFPPRLAQGLEGASDDQLCAVEILGQGYGLHWETLDVDLSLPGLMAGIFGTKAWMAKRAEPPPSAAKDAWSNLPR”, the protein production entry was “not failed”. Take “STGKKPKHHVLSHDIIPASKPIAEKLQIQPESPVVELKRILYNDDQPLTFEVTHYPLDLFPGIDTFIADGVSMHDILKQQYKVVPTHNTKLLNVVYAQQEESKYLDCDIGDALFEIDKTAFTSNDQPIYCSLFLMHTNRVTFTINSPYT”: the protein production entry is reported as “not failed”. Consider “MSLASLIGLAVCTGNAFSPALAAEAKQPNLVIIMADDLGYGDLATYGHQIVKTPNIDRLAQEGVKFTDYYAPAPLSSPSRAGLLTGRMPFRTGIRSWIPSGKDVALGRNELTIANLLKAQGYDTAMMGKLHLNAGGDRTDQPQAQDMGFDYSLANTAGFVTDATLDNAKERPRYGMVYPTGWLRNGQPTPRADKMSGEYVSSEVVNWLDNKKDSKPFFLYVAFTEVHSPLASPKKYLDMYSQYMSAYQKQHPDLFYGDWADKPWRGVGEYYANISYLDAQVGKVLDKIKAMGEEDNTIVIFTSDNGPVTREARKVYELNLAGETDGLRGRKDNLWEGGIRVPAIIKYGKHLPQGMVSDTPVYGLDWMPTLAKMMNFKLPTDRTFDGESLVPVLEQKALKREKPLIFGIDMPFQDDPTDEWAIRDGDWKMIIDRNNKPKYLYNLKSDRYETLNLIGKKPDIEKQMYGKFLKYKTDIDNDSLMKARGDKPEAVTWGEGHHHHHH”, for which the protein production entry is listed as “not failed”. Regarding “MRLSELGTGEKGVIVKVLGHGGFRKRIVEMGFIKGKTVEVLLNAPLKDPIKYKVLGYEISLRRQEAEMIEVVSEEEAKKQAEKAVYHEGLPEDVSVKEEDMKRLALGKRRTINVALVGNPNSGKTSLFNLASGAHEHVGNYSGVTVDAKEGYFDFEGYHFRIVDLPGTYSLSAYTPEEIYVRRHIVDETPDVIINVVDSSNLERNLYLTTQLIDMNVRMVVALNIYDELESSGNTLDYHLLSKLFGVPMVPTVSKKNRGLDTLFHVVINLYEGVDFFDKQGNMNPEVLKDLTEWHDSLEDRKNHEEEHLEDYVREHKRKGRVFRHIHINHGPDLEKAIDAVKEEVSKNEFIRHKYSTRFLSIKLLENDPDIESFVRTLPNAGEIFRIRDKMAKRVQETMNEDCESAITDAKYGFISGALKETFTDNHLEQAQTTKVLDAIVTHRIWGYPIFFLFMYLMFEGTFVLGEYPMMGIEWLVGQIGDLIRNNMSEGPLKDMLVDGIVGGVGGVIVFLPNILILYFCISLMEDSGYMARAAFIMDKIMHKMGLHGKSFIPLIMGFGCNVPAIMASRTIENRKSRLITMLINPLMSCSARLPIYLLLVGAFFPNNASLVLLSIYAIGIFLAVLLARLFSKFLVKGDDTPFVMELPPYRMPTAKSIFRHTWEKGAQYLKKMGGIIMIASIIIWFLGYYPNHEAYETVAEQQENSYIGQLGRAIEPVIKPMGFDWKLGIGLISGVGAKELVVSTLGVLYVDDPEADEASLAERIPITPLVAFCYMLFVLIYFPCIAALAAIKQESGSWKWALFAACYTTGLAWLVAFSVYQIGGMFV”, the protein production entry is listed as “failed”. Take “MRYIKFFKELNNKNVNLVGGKNASIGEMFQELVPIGIKVPDGFAITSEAYWYLLEQGGAKQKIIELLENVDATEIDVLKIRSKQIRELIFGTPFPSDLRDEIFQAYEILSQQYHMKEADVAVRSSATAEDLPDASFAGQQDTYLNIKGKTELIHYIKSCLASLFTDRAISYRASRGFDHLKVALSVGVQKMVRADKGSAGVMFSIDTETGFKDAVFITSAWGLGENVVGGTINPDEFYVFKPTLEQNKRPIIKRQLGNKTQKMVYAPRGSEHPTRNIKTTKKEWQSFSLSDEDVLILAKYAIEIEKHYSKEAKQYRPMDIEWAKDGESGEIFIVQARPETVQSQKSKEESQVFEKFKFKNPNEKKEIILQGRAIGSKIGSGKVRIINDLEHMNSFKEGEILVTDNTDPDWEPCMKKASAVITNRGGRTCHAAIVAREIGVPAIVGVSGATDSLYTGMEITVSCAEGEEGYVYAGIYEHEIERVELSNMQETQTKIYINIGNPEKAFGFSQLPNHGVGLARMEMIILNQIKAHPLALVDLHHKKSVKEKNEIENLMAGYANPKDFFVKKIAEGIGMISAAFYPKPVIVRTSDFKSNEYMRMLGGSSYEPNEENPMLGYRGASRYYSESYNEAFSWECEALALVREEMGLTNMKVMIPFLRTIEEGKKVLEILRKNNLESGKNGLEIYIMCELPVNVILADDFLSLFDGFSIGSNDLTQLTLGVDRDSELVSHVFDERNEAMLKMFKKAIEACKRHNKYCGICGQAPSDYPEVTEFLVKEGITSISLNPDSVIPTWNAVAKLEKELKEHGLTEH”: the protein production result is recorded as “failed”. “MRALLLIAALLAPTAALAQQQLPLWPNGAPGFESRKAIPEQAADYWVKSVNNPSITAYLPPKETATGAALIVLPGGGHRILVIHSEGSDVAKVMNPKGVAVFVVKYRLFREEGSPYTIDHARQDAVRAVRYVRAHAAVFGVDPKRIGLMGFSAGGEAVNLAVYQGAANDPKTDAVDAVSARPDFQVLVYPGPLGVPEKVPTDTPPAFIVAANDDECCSAPPVDLLTRFRAAKVPIEFHLFQSGGHAFNMGLRSHKAALKAWPDRLFDWLADNGWLKAG”: the protein production result is “failed”. For “MKKIEIFDPAMCCPTGLCGTNINPELMRIAVVIESLKKQGIIVTRHNLRDEPQVYVSNKTVNDFLQKHGADALPITLVDGEIAVSQTYPTTKQMSEWTGVNLD”, the protein production result is listed as “not failed”.

Consider “AIAAADISESSGADCKGDPRNSAKLDADYPLRVLYCGVCSLPTEYCEYMPDVAKCRQWLEKNFPNEFAKLTVENSPKQEAGISEGQGTAGEEEEKKKQKRGGRGQIKQKKKTVPQKVTIAKIPRAKKKYVTRVCGLATFEIDLKEAQRFFAQKFSCGASVTGEDEIIIQGDFTDDIIDVIQEKWPEVDDDSIEDLGEVKK”, for which the protein production result was “failed”.

Consider “MRTVTGAILAMNLEVKDFVHRDVEEADRRLREIGARKILLQLPDGLKPYAFDYFTYLSQRYDVILSSSPVYGACDIGPSYLYDRVDAIVQVGHSIMRNVKYPRPVIFIEHYRTVDVEDINTEALKNYRRIGLIYSIQYRPVADRVKRILESKGFEVIIGRSDRRMTYDGQVLGCNFSSVHSVEAEVEAFVIVSTGSFHALGSQISTERPVFLLDLNEMSLRSMEKEADTFIRKRYAQIYRAMDAKRICFLVDTRIGQRREKLARMLMDRARDLGKEAVLAYTDNISDQDIQNMGCDLAVYTGCPRVPIDDQDRFTVPVLTPAEFSMAFFKSSKRYVLDEIVSVDEFTDQLEHHHHHH”, for which the protein production result was “failed”. The same measure for “MYVTRRLSEYQKKPSELKLLPPEGPNSGIMVIQDEESQATCCFGSCYEGRLKGLPFPQNVKLNAAYTSGGGEHQTTHLTPVVFIPVLDQPLSSNLYYVLQRRGKHTGKASASATEEERVSSCFCFSYIPDAKPQEADPYDIYQQFEIHQRRSSSRYYSATSVASDGVPPNYLKRKDWWVSYSTSHDFGLRDDAKGINTKLRLDSELTSLGKSIEIGKWYVPFIFVMEGDVKDQMNKSTFYSVTLQQRWEEVFFCENIGNEHFEVVVDVDVETESVKLEGQETNLREDSGDGVVWFSVLRDEKDDKKIGLGSVVVERMKWEEERFGWLNEAGERSNIKRSERFEGGSSHWKSYRCYVLIESFELTRMDGSLVLTYEFRHVDKLKSKWD”: “failed”.
